Starred links: 1 amine or outer side, 2 acyl side, 3 side chain; linkers in the order of their positions; H or OH if unused. Positions of bridges follow the written chain, without caps; N, C: chain ends. Non-standard residues stand in square brackets, D forms with d. Primed or numbered codes have the meaning given here. ξ: configuration not given here. PyrS2″ = (S)-3-amino-1-((pent-4-en-1-yloxy)carbonyl)pyrrolidine-3-carboxylic acid (stapling residue), C=CCCCOC(=O)N1CC[C@@](N[*:1])(C(=O)[*:2])C1; B5(18) = 2,2-bis(4-pentenyl)glycine (2-amino-2-(pent-4-en-1-yl)hept-6-enoic acid), stitching residue, C=CCCCC(CCCC=C)(N[*:1])C(=O)[*:2]; B5(4) = 2,2-bis(4-pentenyl)glycine = 2-amino-2-(pent-4-en-1-yl)hept-6-enoic acid (stitching residue), C=CCCCC(CCCC=C)(N[*:1])C(=O)[*:2]; TfeGA = (S)-2-amino-3-((carboxymethyl)(2,2,2-trifluoroethyl)amino)propanoic acid, O=C([C@H](CN(CC(=O)[*:3])CC(F)(F)F)N[*:1])[*:2]; PyrS2 = (S)-3-amino-1-((pent-4-en-1-yloxy)carbonyl)pyrrolidine-3-carboxylic acid, C=CCCCOC(=O)N1CC[C@@](N[*:1])(C(=O)[*:2])C1; PyrS3 = (S)-3-amino-1-((hex-5-en-1-yloxy)carbonyl)pyrrolidine-3-carboxylic acid, C=CCCCCOC(=O)N1CC[C@@](N[*:1])(C(=O)[*:2])C1; B5(7) = 2-amino-2-(pent-4-en-1-yl)hept-6-enoic acid, two olefinic side chains, C=CCCCC(CCCC=C)(N[*:1])C(=O)[*:2]; Phe(2-Cl) = N[C@@H](Cc1ccccc1Cl)C(=O)O; Bta = N[C@@H](Cc1csc2ccccc12)C(=O)O; αAllylPro = C=CC[C@@]1(C(=O)O)CCCN1; tBuAla = CC(C)(C)C[C@H](N)C(=O)O; 3Thi = N[C@@H](Cc1ccsc1)C(=O)O; ξβ3hD = NC(CC(=O)O)CC(=O)O
T1: beta-catenin in DLD1 TCF/LEF luciferase reporter cells (UniProt P35222 1-781)
T1 sequence (looked up): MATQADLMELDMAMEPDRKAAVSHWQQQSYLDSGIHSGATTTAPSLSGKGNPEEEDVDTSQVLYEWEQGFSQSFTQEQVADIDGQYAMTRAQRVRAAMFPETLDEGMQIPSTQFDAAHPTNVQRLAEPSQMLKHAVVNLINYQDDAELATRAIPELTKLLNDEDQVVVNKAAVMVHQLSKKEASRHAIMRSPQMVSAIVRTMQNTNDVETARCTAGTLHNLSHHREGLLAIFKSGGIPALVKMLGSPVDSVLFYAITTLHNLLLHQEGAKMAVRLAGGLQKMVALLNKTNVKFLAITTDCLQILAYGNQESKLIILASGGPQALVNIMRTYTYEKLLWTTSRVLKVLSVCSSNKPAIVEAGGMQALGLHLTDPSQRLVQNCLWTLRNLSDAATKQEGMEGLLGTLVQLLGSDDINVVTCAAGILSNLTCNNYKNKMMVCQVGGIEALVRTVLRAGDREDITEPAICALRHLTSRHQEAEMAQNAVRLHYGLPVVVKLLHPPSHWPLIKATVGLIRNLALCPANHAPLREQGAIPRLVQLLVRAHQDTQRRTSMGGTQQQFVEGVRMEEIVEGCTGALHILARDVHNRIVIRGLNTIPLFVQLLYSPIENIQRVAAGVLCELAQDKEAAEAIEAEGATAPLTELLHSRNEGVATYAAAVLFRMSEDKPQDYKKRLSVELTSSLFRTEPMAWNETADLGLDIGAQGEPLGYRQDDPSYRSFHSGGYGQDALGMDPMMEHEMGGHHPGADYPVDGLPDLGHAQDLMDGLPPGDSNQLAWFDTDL

T2: B-cat-Halo (NanoBRET construct expressed in HEK293 cells) (UniProt P35222 1-781, HaloTag NanoBRET 618 Ligand bound in the assay)
T2 sequence (looked up): T1 sequence (looked up)

T3: B-cat-Halo (UniProt P35222 1-781)
T3 sequence (looked up): T1 sequence (looked up)


Columns and labels:
Test in all cases: cell-based or functional assay
[1] = molecular target: T1, beta-catenin in DLD1 TCF/LEF luciferase …
[2] = molecular target: T2, B-cat-Halo (NanoBRET construct …)
[3] = molecular target: T3, B-cat-Halo

DLD1 reporter assay Abs IC50 [1] [µM] | NanoBRET Abs IC50 [2] [µM] | Binder | also measured
13 | – | Ac-[αAllylPro]D[tBuAla][B5(18)]D[TfeGA]FAFN[PyrS2″][Phe(2-Cl)][Bta]Q-NH2 (staple 1-4, 4-11) [I-1008] | –
– | 30.9 | Ac-[αAllylPro]D[tBuAla][B5(7)]DDAAFQ[PyrS2][3Thi][Bta]Q-NH2 (staple 1-4, 4-11) [I-764] | –
21.4 | – | Ac-[αAllylPro]D[tBuAla][B5(18)]DNAAFT[PyrS2″][Phe(2-Cl)][Bta]S-NH2 (staple 1-4, 4-11) [I-1016] | –
– | – | Ac-[αAllylPro][ξβ3hD][tBuAla][B5(4)]D[TfeGA]AAFN[PyrS2″][3Thi][Bta]Q-NH2 (staple 1-4, 4-11) [I-1161] | NanoBRET Abs IC50 [3]: > 20 µM
– | > 20 | Ac-[αAllylPro]D[tBuAla][B5(7)]DDAAFQ[PyrS2][3Thi][Bta]H-NH2 (staple 1-4, 4-11) [I-772] | –
– | 21.3 | Ac-[αAllylPro]D[tBuAla][B5(7)]DDAAFQ[PyrS2][3Thi][Bta]Q-NH2 (staple 1-4, 4-11) [I-763] | –
– | 31.4 | Ac-[αAllylPro]D[tBuAla][B5(7)]DDAAFN[PyrS3][3Thi][Bta]Q-NH2 (staple 1-4, 4-11) [I-768] | –
> 20 | – | Ac-[αAllylPro]D[tBuAla][B5(18)]D[TfeGA]KAFN[PyrS2″][Phe(2-Cl)][Bta]Q-NH2 (staple 1-4, 4-11) [I-1011] | –
– | 37.2 | Ac-[αAllylPro]D[tBuAla][B5(7)]DDAAFN[PyrS3][3Thi][Bta]Q-NH2 (staple 1-4, 4-11) [I-767] | –
– | 37.3 | Ac-[αAllylPro]D[tBuAla][B5(7)]DDAAFQ[PyrS2][3Thi][Bta]H-NH2 (staple 1-4, 4-11) [I-771] | –
8.3 | – | Ac-[αAllylPro]D[tBuAla][B5(18)]DDAAFS[PyrS2″][Phe(2-Cl)][Bta]S-NH2 (staple 1-4, 4-11) [I-1019] | –
> 20 | – | Ac-[αAllylPro]D[tBuAla][B5(18)]DDAAFS[PyrS2″][Phe(2-Cl)][Bta]Q-NH2 (staple 1-4, 4-11) [I-1017] | –
– | 13 | Ac-[αAllylPro]D[tBuAla][B5(7)]D[TfeGA]AAFN[PyrS2][3Thi][Bta]H-NH2 (staple 1-4, 4-11) [I-769] | –
– | 13.7 | Ac-[αAllylPro]D[tBuAla][B5(7)]D[TfeGA]AAFN[PyrS2][3Thi][Bta]H-NH2 (staple 1-4, 4-11) [I-770] | –
3.3 | – | Ac-[αAllylPro]D[tBuAla][B5(18)]D[TfeGA]LAFN[PyrS2″][Phe(2-Cl)][Bta]Q-NH2 (staple 1-4, 4-11) [I-1007] | –
9 | – | Ac-[αAllylPro]D[tBuAla][B5(18)]DDAAFT[PyrS2″][Phe(2-Cl)][Bta]S-NH2 (staple 1-4, 4-11) [I-1015] | –
